Experimental data: publication PMC10120048

Biological target: Cytochrome bX
Assay: native MS; 5 µM purified CytbX in 0.2 M ammonium acetate pH 8.0 with lauryldimethylamine oxide at 2x critical micelle concentration; Q-Exactive UHMR; dimer of the protein with itself

A stoichiometry N of 2 was found for Cytochrome bX in this work.
